{
  "source": "paper PMC12225155",
  "target": "importin α5 (UniProt P52294)",
  "assay": "co-immunoprecipitation, western blot",
  "conditions": "reference: KIAA1429-WT; sites S1579",
  "data": [
    {"substance": "KIAA1429 (VIRMA) (from UniProt Q69YN4) KIAA1429-SA (S1579A)", "values": [
      {"measurement": "binding against the reference", "result": "stronger"}
    ]}
  ]
}
